Measured values from article PMC9318811, “PbUGT72AJ2-Mediated Glycosylation Plays an Important Role in Lignin Formation and Stone Cell Development in Pears (Pyrus bretschneideri)” (International Journal of Molecular Sciences, 2022).

How the values were obtained:
[1] = substrate: COc1cc(/C=C/CO)cc(OC)c1O; experiment: HPLC of glucoside product, double reciprocal plot; format: biochemical, Pyrus x bretschneideri; details: 2.5 mM UDP-glucose, 50 mM MgSO4, 200 mM KCl, 100 mM PBS pH 7.2–7.4, 35 °C, 0.1% β-mercaptoethanol, pH 7.0
Text: (§1) HPLC of glucoside product, double reciprocal plot on PbUGT72AJ2

[2] = substrate: COc1cc(/C=C/CO)ccc1O; experiment: HPLC of glucoside product, double reciprocal plot; format: biochemical, Pyrus x bretschneideri; details: 2.5 mM UDP-glucose, 50 mM MgSO4, 200 mM KCl, 100 mM PBS pH 7.2–7.4, 35 °C, 0.1% β-mercaptoethanol, pH 7.0
Text: as §1

B1: PbUGT72AJ2 (Pyrus x bretschneideri) (protein)
chain: MSSKPHAAILCSPGLGHLIPSLELAKRLVTHRNFTVTIFAIPSPTSKTESELLKAAATPKFFDIIELPPPDISGCVGPNVAVVTLLAVMMREVRPAFRSAILGMEYSLRPTVLIVDLFSTESLSIGDELGIPKYVYVASTAWLVALTVYVPVFDREMEGEYVDQTEPLRIPGCKPVQPDDVVDPMLDRTDQQYLEYVRIGTNFPKSDGILMNTWEDLEHKTIDALRDEGLLGRVAKVPIYPIGPLTRSVQSAGSTSTGLREEGLFNWLDKQPCESVIFVSLGSGGTVSFEQMTEMAWGLELSKQRFIWVVRPPAKSADAAYFTSGNRDDDPSTYLPKGFLTRTHDVGLVVHLWAPQVDILSHPSIGGFWSHCGWNSSLESITNEVPMIVWPLHAEQRINATMLTEELGVAVRSKVLPLKKVVDREEIKEMVRKIMVDKDGQAIRGRVKELKLSAAKAWSVGGSSYNAISQISSGNQRKC
In the case of B1, the Km [1] is reported as 144.13 ± 22.31 µM, the Vmax [1] is reported as 3.32 µM/min/mg and the kcat [1] is reported as 0.44 ± 0.03 s⁻¹. It also gave a kcat/Km [1] of 3050 ± 250 M⁻¹ s⁻¹, a Km [2] of 117.83 ± 7.94 µM and a Vmax [2] of 4.23 µM/min/mg. It also gave a kcat [2] of 0.55 ± 0.02 s⁻¹ and a kcat/Km [2] of 4670 ± 130 M⁻¹ s⁻¹.
